The values that follow come from article PMC4989506.

The target in one assay is C3b (human) (UniProt P01024). The experiment in a line: SPR. In general terms: In SPR one partner is held on a chip, and binding of the other changes the refractive index at the surface.
Assay [1] concerns the target recombinant albicin (Anopheles albimanus complement inhibitor) (Anopheles albimanus). The experiment in a line: SPR.

Sequence of properdin (P27918 28-469): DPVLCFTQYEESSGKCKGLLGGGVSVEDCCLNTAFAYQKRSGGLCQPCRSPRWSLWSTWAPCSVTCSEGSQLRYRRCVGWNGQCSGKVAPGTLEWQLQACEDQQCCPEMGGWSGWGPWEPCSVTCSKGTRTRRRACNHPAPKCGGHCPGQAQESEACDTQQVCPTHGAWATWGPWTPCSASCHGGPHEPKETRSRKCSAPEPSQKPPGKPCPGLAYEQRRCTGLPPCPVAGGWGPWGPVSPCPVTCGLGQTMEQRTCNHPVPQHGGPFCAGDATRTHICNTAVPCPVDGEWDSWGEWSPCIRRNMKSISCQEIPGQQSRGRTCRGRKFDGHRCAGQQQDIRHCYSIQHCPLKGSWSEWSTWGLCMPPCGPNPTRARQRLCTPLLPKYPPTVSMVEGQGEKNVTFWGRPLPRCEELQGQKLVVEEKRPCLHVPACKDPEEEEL
Sequence of recombinant albicin (Anopheles albimanus complement inhibitor) (Anopheles albimanus) (A0A1Y9G8D0 27-142, tags left off): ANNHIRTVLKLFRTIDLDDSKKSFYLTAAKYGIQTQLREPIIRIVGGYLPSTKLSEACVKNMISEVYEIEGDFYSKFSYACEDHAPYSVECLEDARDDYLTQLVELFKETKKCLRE

On to “properdin (from UniProt P27918 28-469) (natural protein)”, for which, in the assay with C3b (human), the response of properdin coated on the C3b surface stood at 1200 RU. For the same substance, the K1/2 (concentration at half-saturation) in assay [1] came to 11.6 nM.
